The target in this test is T1, biotinylated human transferrin (human, UniProt P02787 20-698, biotinylated (sites not given)).
T1 construct: Used at 0.05-0.1 mg/mL as the labelling reagent; detected with R-phycoerythrin-conjugated streptavidin; also called Sigma-aldrich T3915-5MG
Briefly: flow cytometry, E. coli C43 (DE3) cells expressing Nlobe_HpuA with SLAM1 or SLAM2, labelled with biotinylated human transferrin.

Here are results for one molecule from patent US20190111122A1 (ENGINEERED ANTIGENS, published 2019).

T1 sequence (P02787 20-698 limits assumed): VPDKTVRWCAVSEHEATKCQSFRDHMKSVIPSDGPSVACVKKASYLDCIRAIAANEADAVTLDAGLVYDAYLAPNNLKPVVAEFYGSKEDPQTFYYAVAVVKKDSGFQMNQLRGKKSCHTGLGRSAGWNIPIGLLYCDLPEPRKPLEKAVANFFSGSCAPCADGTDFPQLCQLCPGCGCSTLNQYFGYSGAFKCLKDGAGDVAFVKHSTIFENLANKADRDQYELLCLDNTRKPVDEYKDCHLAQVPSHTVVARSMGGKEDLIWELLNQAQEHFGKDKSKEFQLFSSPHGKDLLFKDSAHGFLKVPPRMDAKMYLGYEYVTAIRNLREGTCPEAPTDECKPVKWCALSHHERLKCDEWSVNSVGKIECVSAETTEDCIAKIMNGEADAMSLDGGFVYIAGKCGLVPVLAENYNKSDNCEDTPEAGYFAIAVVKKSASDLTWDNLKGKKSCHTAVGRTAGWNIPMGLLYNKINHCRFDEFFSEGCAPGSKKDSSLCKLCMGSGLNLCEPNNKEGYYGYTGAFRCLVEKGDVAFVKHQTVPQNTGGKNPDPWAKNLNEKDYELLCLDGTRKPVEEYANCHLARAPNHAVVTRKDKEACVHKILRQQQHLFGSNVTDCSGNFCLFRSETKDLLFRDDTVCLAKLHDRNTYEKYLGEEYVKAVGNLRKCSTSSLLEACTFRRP

B1: TbpB N-lobe fused to HpuA (N. meningitidis) (other)
chain: CLGGGGSFDLDSVETVQDMHSKPKYEDEKSQPESQQDVSENSGAAYGFAVKLPRRNAHFNPKYKEKHKPLGSMDWKKLQRGEPNSFSERDELEKKRGSSELIESKWEDGQSRVVGYTNFTYVRSGYVYLNKNNIDIKNNIVLFGPDGYLYYKGKEPSKELPSEKITYKGTWDYVTDAMEKQRFEGLGSAAGGDKSGALSALEEGVLRNQAEASSGHTDFGMTSEFEVDFSDKTIKGTLYRNNRITQNNSENKQIKTTRYTIQATLHGNRFKGKALAADKGATNGSHPFISDSDSLEGGFYGPKGEELAGKFLSNDNKVAAVFGAKQKDKKDAGGGVAEPHVPVSIPTATPLPTGEVKLSDDNSKIENINTADTGSTSGISIQQRKYEVESYGIKREEKAFIFQTPGGAQYALSSYADPITVSYSSPDFKIPDRHAGQRLADGSRIFICCSESGATSYAEITKQDYMKFGAWIGPNGEIDLFAGGFPVGKTPKPKYSWGNTEPETKGKGKITYQVWGIRVRNRQFVTSSYTPPKSGSYYGTLANTPVLSFITANFNSNKLAGEIRGNSDYGPSVKIENATINSLSFSGTATSGGKTGNLEGKFFGKFNGYRDTETSIGGKITFDGDRSLDTVFGGVSYKKELENNTDTSTTHLTK
notes: also called Nlobe-HpuA
On to B1, for which the binding result is listed as “binds”.
